Publication PMC5412928, “Engineered ligand‐based VEGFR antagonists with increased receptor binding affinity more effectively inhibit angiogenesis” (Bioengineering & Translational Medicine, 2017)
Substitutions are numbered along the chain they refer to. Each block holds one binder with its values, some of them ahead of it.

Columns and labels:
[1] = biological target: T1, human VEGFR2 on PAE/KDR cells (human, UniProt P35968 20-1356); experiment: flow cytometry on cells; soluble FLAG-tagged scVEGF variants titrated on 50,000 PAE/KDR cells in integrin binding buffer (20 mM Tris pH 7.5, 100 mM NaCl, 1 mM MgCl2, 1 mM MnCl2, 2 mM CaCl2, 1 mg/ml BSA), 4°C, 4–6 hr; phycoerythrin anti-FLAG antibody; sigmoidal fit of mean fluorescence; settings: one partner purified
T1 construct: VEGFR2 (KDR), human, stably expressed on porcine aortic endothelial cells; also called vascular endothelial growth factor receptor 2; source: porcine aortic endothelial (PAE) cells stably transfected to express human VEGFR2 (PAE/KDR cells), on cells
T1 sequence (P35968 20-1356): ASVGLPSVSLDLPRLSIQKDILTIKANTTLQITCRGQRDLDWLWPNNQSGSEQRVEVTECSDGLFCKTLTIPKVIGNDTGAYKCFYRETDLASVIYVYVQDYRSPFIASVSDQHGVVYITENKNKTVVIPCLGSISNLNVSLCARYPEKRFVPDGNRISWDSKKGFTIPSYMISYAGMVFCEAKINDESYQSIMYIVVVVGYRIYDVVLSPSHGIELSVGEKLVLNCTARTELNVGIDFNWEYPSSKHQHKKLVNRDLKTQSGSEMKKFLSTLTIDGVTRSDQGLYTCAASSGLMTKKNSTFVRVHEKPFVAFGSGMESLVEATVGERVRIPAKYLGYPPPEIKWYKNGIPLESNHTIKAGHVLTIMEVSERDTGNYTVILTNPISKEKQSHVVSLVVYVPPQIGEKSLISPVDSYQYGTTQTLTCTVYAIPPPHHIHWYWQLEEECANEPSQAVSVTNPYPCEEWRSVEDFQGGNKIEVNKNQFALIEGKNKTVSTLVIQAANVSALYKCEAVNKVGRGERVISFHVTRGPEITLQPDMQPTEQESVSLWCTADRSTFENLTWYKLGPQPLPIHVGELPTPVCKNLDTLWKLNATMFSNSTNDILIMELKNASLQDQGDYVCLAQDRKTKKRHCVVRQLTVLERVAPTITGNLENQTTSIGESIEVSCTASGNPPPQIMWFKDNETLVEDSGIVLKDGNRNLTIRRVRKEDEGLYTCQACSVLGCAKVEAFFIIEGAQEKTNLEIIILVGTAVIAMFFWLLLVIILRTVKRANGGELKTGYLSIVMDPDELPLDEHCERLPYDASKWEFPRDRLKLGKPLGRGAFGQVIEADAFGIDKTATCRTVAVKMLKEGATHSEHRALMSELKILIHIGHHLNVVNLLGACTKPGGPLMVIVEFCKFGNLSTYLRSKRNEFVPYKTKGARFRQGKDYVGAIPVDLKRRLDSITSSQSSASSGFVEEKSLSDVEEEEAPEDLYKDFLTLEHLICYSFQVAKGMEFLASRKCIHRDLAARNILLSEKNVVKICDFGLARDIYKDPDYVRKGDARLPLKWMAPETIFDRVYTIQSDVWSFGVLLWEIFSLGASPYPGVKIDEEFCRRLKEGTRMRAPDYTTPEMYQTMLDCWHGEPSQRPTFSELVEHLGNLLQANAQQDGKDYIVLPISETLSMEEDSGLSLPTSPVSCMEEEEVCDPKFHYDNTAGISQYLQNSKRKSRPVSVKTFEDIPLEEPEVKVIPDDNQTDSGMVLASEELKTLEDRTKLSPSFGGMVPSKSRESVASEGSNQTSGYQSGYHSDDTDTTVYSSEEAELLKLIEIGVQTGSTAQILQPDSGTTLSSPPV

[2] = biological target: T2, VEGFR2 on HUVECs (human (endogenous in HUVECs), UniProt P35968 20-1356); experiment: flow cytometry on cells; apparent; soluble FLAG-tagged scVEGF variants titrated on 50,000 serum-starved HUVECs (bear VEGFR2 and αvβ3 integrin) in integrin binding buffer, 4°C, 4–6 hr; phycoerythrin anti-FLAG antibody; sigmoidal fit; settings: one partner purified
T2 construct: VEGFR2, endogenous on HUVECs; HUVECs also bear αvβ3 integrin; source: endogenous, on human umbilical vein endothelial cells (HUVECs)
T2 sequence (P35968 20-1356): as above

- Kd [1]: 27 nM
- fold tighter binding of scVEGFmE7I than of scVEGFmut [2]: ≥ 330 fold
B1: scVEGFmut (ligand)
chain: APMAEGGGQNHHEVVKAMDVYQRSYCHPIETLVDIFQEYPDEIEYIFKPSCVPLMRCGGCCNDAGLECVPTEESNITMQIMRIKPHQGQHIGEMSFLQHNKCECRPKKDGSTSGSGKSSEGKGAPMAEGGGQNHHEVVKFMDVYQRSYCHPIETLVDIFQEYPDEIEYAFKPSCVPLMRCGGCCNDEGLECVPTEESNITMQIMRAKPHQGQHIGEMSFLQHNKCECRPKKD

- Kd [2]: 3.8 nM
B2: scVEGFwt (ligand)
chain: B1 chain with A17F, A64E, A169I, A206I
